This is an account of results in patent US6706762, “Methods for the use of inhibitors of co-repressors for the treatment of neoplastic diseases” (The Salk Institute for Biological Studies).

One data set concerns the target RARα/RXRα heterodimer (UniProt P10276;P19793 P10276:1-462,P19793:1-462). Nature of the data set: EMSA; with GST-SMRT-IDII; SMRT dissociated by ATRA; 100 mM KCl, 16.7 mM Tris pH 7.5, poly(dI:dC), room temperature. The following applies: label: 32P. An excerpt:
The protein-DNA complexes were then resolved on a 4.5% native polyacrylamide gel and visualized by autoradiography.

The target in data set [1] is RARα 411/RXRα heterodimer (Homo sapiens, UniProt P10276;P19793 P10276:1-410,P19793:1-462, RARα stop codon introduced at amino acid 411). Description: EMSA; with GST-SMRT-IDII; impaired dissociation of SMRT by ATRA. The following applies: label: 32P. (In general: In EMSA bound probe runs differently from free probe, usually more slowly.)
RARα 411/RXRα heterodimer, sequence (P10276 1-410, change not shown, chain 1 of 2): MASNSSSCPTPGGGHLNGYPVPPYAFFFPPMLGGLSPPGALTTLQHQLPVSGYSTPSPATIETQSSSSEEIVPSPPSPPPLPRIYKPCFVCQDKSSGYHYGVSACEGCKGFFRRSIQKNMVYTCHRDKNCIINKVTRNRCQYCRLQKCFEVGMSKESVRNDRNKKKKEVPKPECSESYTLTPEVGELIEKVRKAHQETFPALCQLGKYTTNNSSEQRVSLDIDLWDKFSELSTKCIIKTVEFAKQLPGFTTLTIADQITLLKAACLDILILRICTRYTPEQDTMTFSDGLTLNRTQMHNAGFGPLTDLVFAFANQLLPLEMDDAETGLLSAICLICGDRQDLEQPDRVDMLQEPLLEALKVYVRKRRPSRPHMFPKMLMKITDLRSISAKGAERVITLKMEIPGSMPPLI
RARα 411/RXRα heterodimer, sequence (P19793 whole entry, change not shown, chain 2 of 2): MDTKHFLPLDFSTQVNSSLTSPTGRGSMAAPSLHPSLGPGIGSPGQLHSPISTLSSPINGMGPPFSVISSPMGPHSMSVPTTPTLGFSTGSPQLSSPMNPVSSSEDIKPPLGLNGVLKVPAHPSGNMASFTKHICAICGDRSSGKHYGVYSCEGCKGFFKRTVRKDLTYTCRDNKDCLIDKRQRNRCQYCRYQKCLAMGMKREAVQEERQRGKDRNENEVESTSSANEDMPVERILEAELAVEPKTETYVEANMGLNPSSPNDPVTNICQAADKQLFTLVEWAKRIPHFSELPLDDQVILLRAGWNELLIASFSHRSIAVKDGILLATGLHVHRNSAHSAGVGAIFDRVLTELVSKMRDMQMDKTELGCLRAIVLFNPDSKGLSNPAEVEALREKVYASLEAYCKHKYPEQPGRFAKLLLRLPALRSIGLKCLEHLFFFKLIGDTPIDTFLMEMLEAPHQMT

RARα/RXRα heterodimer, sequence (P10276 whole entry, chain 1 of 2): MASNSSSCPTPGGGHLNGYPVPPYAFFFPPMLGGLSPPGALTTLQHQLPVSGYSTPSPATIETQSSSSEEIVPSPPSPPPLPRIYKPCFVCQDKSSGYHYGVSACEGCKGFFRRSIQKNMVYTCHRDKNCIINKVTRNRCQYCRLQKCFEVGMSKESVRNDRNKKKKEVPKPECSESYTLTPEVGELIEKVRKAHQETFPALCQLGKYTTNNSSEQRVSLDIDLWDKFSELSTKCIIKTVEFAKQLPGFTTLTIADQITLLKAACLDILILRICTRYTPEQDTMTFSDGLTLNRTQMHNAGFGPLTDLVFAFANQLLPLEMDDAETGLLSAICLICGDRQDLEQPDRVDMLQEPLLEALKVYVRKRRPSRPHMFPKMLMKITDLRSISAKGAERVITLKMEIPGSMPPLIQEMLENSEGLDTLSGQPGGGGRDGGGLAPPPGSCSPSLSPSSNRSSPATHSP
RARα/RXRα heterodimer, sequence (P19793 whole entry, chain 2 of 2): as the sequence (P19793 whole entry, change not shown, chain 2 of 2) above

B1: DR5 retinoid response element (dsDNA)
DNA 1: TCGACTCAGGTCACCACGAGGTCAGAGTC
DNA 2: GACTCTGACCTCGTGGTGACCTGAGTCGA
In the case of B1, the binding result (with RARα/RXRα heterodimer; in data set [1]) was “binds” each time.
